Test results published in paper PMC9943660.
Residue numbers refer to the chain shown, from its start.

Experiments:
Assay in all cases: SPR
MutS D835R = target: T1, MutS D835R (Escherichia coli, UniProt P23909 1-853, D835R)
T1 sequence: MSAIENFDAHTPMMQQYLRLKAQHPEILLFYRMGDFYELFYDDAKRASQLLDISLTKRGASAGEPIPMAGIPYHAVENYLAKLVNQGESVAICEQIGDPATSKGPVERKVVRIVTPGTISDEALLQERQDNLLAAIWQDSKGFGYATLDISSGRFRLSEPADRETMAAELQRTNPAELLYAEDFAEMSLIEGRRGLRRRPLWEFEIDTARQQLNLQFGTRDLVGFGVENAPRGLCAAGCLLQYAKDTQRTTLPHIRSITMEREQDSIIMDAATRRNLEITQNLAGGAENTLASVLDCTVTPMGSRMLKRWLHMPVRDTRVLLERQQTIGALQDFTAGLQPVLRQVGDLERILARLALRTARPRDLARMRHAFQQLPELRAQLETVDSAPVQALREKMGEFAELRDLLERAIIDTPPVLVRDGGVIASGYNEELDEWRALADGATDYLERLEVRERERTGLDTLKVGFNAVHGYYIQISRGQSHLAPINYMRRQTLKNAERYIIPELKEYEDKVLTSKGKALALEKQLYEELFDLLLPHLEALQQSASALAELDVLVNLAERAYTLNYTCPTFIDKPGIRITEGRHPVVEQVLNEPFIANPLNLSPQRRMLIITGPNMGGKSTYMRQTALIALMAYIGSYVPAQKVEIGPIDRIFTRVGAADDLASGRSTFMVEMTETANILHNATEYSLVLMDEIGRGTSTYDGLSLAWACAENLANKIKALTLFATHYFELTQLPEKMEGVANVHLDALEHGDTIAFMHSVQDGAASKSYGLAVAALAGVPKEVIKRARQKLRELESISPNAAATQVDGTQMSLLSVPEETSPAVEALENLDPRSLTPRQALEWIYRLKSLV

MutS WT = target: T2, MutS WT (Escherichia coli, UniProt P23909 1-853)
T2 sequence: T1 sequence with R835D

[1] = target: MSH2 WT (MutSα);MSH6 WT (MutSα) (human;human, UniProt P43246;P52701 1-934;1-1360, |)
[2] = target: MSH2 dMBD2;MSH6 WT (MutSα) (human;human, UniProt P43246;P52701 125-934;1-1360, |)
[3] = target: MSH2 del2-7;MSH6 WT (MutSα) (human;human, UniProt P43246;P52701 1-934;1-1360, del2-7|)

B1: 21 bp GT mismatch (SPR) (dsDNA)
DNA 1: TTTTTTTTTTTTTTTTTTTTAGTCGCCAGGGACCAGTGTCA
DNA 2: TGACACTGGTCTCTGGCGACT
B1 was tested, and the Kd (MutS D835R) was 30.85 ± 0.08 nM, the binding result (MutS WT) was “binds” and the Kd [1] was 1.08 ± 0.02 nM. For the same binder, the Kd [2] was 16.4 ± 0.86 nM and the Kd [3] was 3.28 ± 0.12 nM.
